Laboratory results as given in the DeepSol protein solubility set.

assay: soluble on expression in E. coli; label from the status in PepcDB or PDB records

| Sequence | soluble on expression in E. coli |
| --- | --- |
| MMNYELMTTQNAPVKMWTKGVPVEDDARQQLINTAKMPFIFKHIAVMPDVHLGKGSTIGSVIPTKGAIIPAAVGVDIGCGMNALRTSLTAADLPENLADLRSAIEAAVPHGRTTGRGHRDVGAWGNPPANVNEKWAQLEAGYQWLTQKYPRFLNTNNYKHLGTLGTGNHFIEICLDETDRVWIMLHSGSRGIGNAIGTYFIGLAQQEMQEQLETLPSRDLAYFNEGSEYFDDYLKAVHWAQQFASLNREAMMENALAALQRCVEKPSALDMDEINCHHNYVQKEQHFGEEIYVTRKGAVSARRGEFGIIPGSMGAKSFIVRGLGNEESFCSCSHGAGRVMSRTKAKKLFSVDDQIRATAHVECRKDADVIDEIPMAYKDIDAVMAAQSDLVEIMYALRQVVCVKGLEHHHHHH | not soluble |
| MAPASILCCDTDNRRPQMKLTGGCYCGALRYEAEGEPMLKAQCHCRACQSYSGGAPNLFMVMPAAGFRYVKGTPKSFRLEDRPDRVTRDFCATCGTGVASHRPGLPAVILKIGTLDDPALFKGPRAAVFAAEKQAFHIIPEGVHAFDGLPPT | not soluble |
| MSLDDESYEEEHKRMVLKIHQEFWDLPTNYQEKPLVFGSQAKNRYKTILPNEHSRVILEPERSPAAGGEPYINANYIKGPDYANNSYIATQGPLPNTIYEFWLMVYQNVVRTATVAGRSCASAGLEQKIVMLTNFVENGRQKCAIYFPQTADEWVAFGSGADIDVGEMLREKDTITASIAAAEQQPEGQEAVGGVCQPVTVRVPCASCFFLVHNVAVEQRNGYTVRTLNVIYGAKVSDADAPDGDGSRALFELTQFRAHHYWFPDWPDHRSPKDINVLLDLSLDVLGSNVVDTPRPESSNSLKGNQPGTPGLEEVMGAAQLAALSSSCTPTVLPIVHSSAGIGRTGCLIAILNGLRQLRLSVMAHQRKQQQLKQSQAQTGEAGQGELHGSEGRRKSTVQMDGATLLAPNAAVGRGGQREGSAVVRESGQVDILGIVCNLRLQRGGMVQNSEQYELIHRALCLYLEKLTQDGQEGHHHHHH | soluble |
| SVLEGNPEVGSPRTSDLQHRGNKGSCVLSSPGEDAQPGEEPIKYGELIVLGCCEEGGEETEAQRGEVTGPRAHSCYNGCLASGDKGRRRSRLALSRRSHANGVKPDVMHHISTPLVSKALSNRGQHSISYTLSRSHSVIVEYTHDSDTDMFQIGRSTENMIDFVVTDTSPGGGAAEGPSAQSTISRYACRILCDRRPPYTARIYAAGFDASSNIFLGERAAKWRTPDGLMDGLTTNGVLVMHPAGGFSEDSAPGVWREISVCGNVYTLRDSRSAQQRGKLVGGPLHSPPLSLPGPHKLPIPLPKPGDDLQSFCPREPQQAPYQGIPGPGGS | soluble |
| MLRFYAMKQITEPGTYEIRGEVAEGDFSWDATNFAGFFYDVNDDVSTESLTVTGLNGGNVIPEGGLVYETTIQMVDYEYSKPSVGWDQFPVLGFFAEEYIPINADKADKLAKLVLDSDDKYTIRTGEQLDLGEGYAIEAKQVDVDGEKVWLEFTKDGEFVDDEIISVVSGSDNTWEVELDDIQDEDDVVVLRVHVNQVFQGAVDSIAQIEGIWLIDYANAMKIESDDEFGDLDNVKINGATLTITNEDTFTLTRDDEVEIGQGMFFKVADTAASDLRYYPFVEKTIDGEVVLEHHHHHH | soluble |
| MSLKYYLAPMEGITGFIYRNSYEKFFGGIDKYFAPFVVPNSSKSLKTKELRDVLPENNKGINLVPQILTNDSEGFISTARKLKQLGYNEINLNLGCPSGTVVGKKRGSGFLAHKEELDKFLEEIFKIDDMKLSIKTRLGMDKPEEFYELIKIYNKYPMEELIIHPRTRQDFYANKPNLEVFKDAISLSKNPICYNGDIFTVEDHNKLIETFPEVDKIMLGRGILANPALMNEILNNEFMDKKVLKEFHDEVFNKYREVFNEDRNAMFRMKELWGYMIYMFSNNKKYAKKIKKAQKVVEYNQAVTSLFLEQDILKGAGLFSSEEGHHHHHH | soluble |
| AQQAEWRSWEVNKRLEYSLVKGITEFIEQDTEEARQQATRPCEVIEGPLMDGMNVVGDLFGEGKMFLPQVVKSARVMKQAVAYLEPFIEASKEQCKTNGKMVIATVKGDVHDIGKNIVGVVLQCNNYEIVDLGVMVPAEKILRTAKEVNADLIGLSGLITPSLDEMVNVAKEMERQGFTIPLLIGGATTSKAHTAVKIEQNYSGPTVYVQNASRTVGVVAALLSDTQRDDFVARTRKEYETVRIQHGRKKPRTPPVTLEAARDNDFAFDWQAYTPPVAHRLGVQEVEASIETLRNYIDWTPFFMTWSLAGKYPRILEDEVVGVEAQRLFKDANDMLDKLSAEKTLNPRGVVGLFPANRVGDDIEIYRDETRTHVINVSHHLRQQTEKTGFANYCLADFVAPKLSGKADYIGAFAVTGGLEEDALADAFEAQHDDYNKIMVKALADRLAEAFAEYLHERVRKVYWGYAPNENLSNEELIRENYQGIRPAPGYPACPEHTEKATIWELLEVEKHTGMKLTESFAMWPGASVSGWYFSHPDSKYYAVAQIQRDQVEDYARRKGMSVTEVERWLAPNLGYDAD | soluble |
| MRGEAGELAVSSGEIATGALSPEKQQEQELMGKLAATGKLPARPASSFLQKKLQQRKFFDSGDYAMDKSKAGTGLGSKPHPLAGGPPPAAPPVVAQRSPAPAATTPSPSASPISQQTNRPSSDRNSDDDNLQIPRPDTVPQRKASIINPSVHCKLSPAPHVQHHDAASPNATSE | soluble |
| MSPPSTIAYVLPPGFKFVPNDEEVIHCYLKPYSDGNTNVLLHVPIHLVNIYESNPQTLSEEFQKGNDKEWFIITERNKVDQGLSQTKRVGYGAKRQKRVDTNGGYWHATVAAQKINAGDGVVRNKRPLAYYVGKPSEGVKTDWLMQEYSLDHSSHNNDKDYTLCKIYLTPQATKMNKEVGEEKKKQKKGEAVVSVAPVEALEEQLPCNVEYHQPLAPLDSCQPQPHDLAYQQQQFCPGPLDSYQPQPHDMENQQPHNEKLKKEEDVEQLDLHQPDQGKGC | not soluble |
| HHHHHHHMTAPAADDRIDEIERAITKSRRYQTVAPATVRRLARAALVAARGDVPDAVKRTKRGLHEIYGAFLPPSPPNYAALLRHLDSAVDAGDDEAVRAALLRAMSVHISTRERLPHLDEFYRELFRHLPRPNTLRDLACGLNPLAAPWMGLPAETVYIASDIDARLVGFVDEALTRLNVPHRTNVADLLEDRLDEPADVTLLLKTLPCLETQQRGSGWEVIDIVNSPNIVVTFPTKSLGQRSKGMFQNYSQSFESQARERSCRIQRLEIGNELIYVIQK | soluble |
| MVSPLKTRCCSPSSQQQASEAREIEQPSTVWELDFYSRPVYGKDNKRIWELIVVDESFLLCHVESVPNDMINSAELRKRVERLLEQVTVKPKVVKFSRMPMFNMISLALKDLGFEVKPSRRTYRLYHVLRDREANIYSKMPGYRSENTLSTSYLYSTERLPDALRGEKFAFCTADYSFLYELQSSDTIPYCDIFNTGDSILLEKELPGIIVYSERADSLASWTAGAEVSFIKFREEELELVLECGINSHYRLAKIAEDHRLVEEAKTFEQMKWHMKGFHFYAIQSLKETSGTSHIKGLWLLNDFMEQ | not soluble |
| MAHHHHHHMMSKPHHATLESIKYTPGSLRLLDQRKLPLETVFDDVLTVEDIWSAIKEMRVRGAPAIAVSAALGIAVATQRKAANGELKSGREVQTFLLTSCDFVMTSRPTAVNLFNCLRDLKAQVDKLDPTKAAAEVAQAFVELAEAVYTNDVAFNEGIMRHGAAHILAAAKAEGRDKVSILTICNTGALATSRYGTALGVVRQLFYDGKLERVYACETRPWNQGARLTVYECVQEDIPCTLICDGAASSLMLNRKIDAVVVGADRICQNGDTANKIGTYNLAVSAKFHGVKLYVAAPTTTLDVKTASGNHVEIEEREPTEITTNLVTKQRVVADGPHLSIWNPVFDITPSELITGGIITEKGVQAPAASAPYYDIASIIAQA | soluble |
| GAMGSMKPYLFDLKLKDTEKLDWKKGLSSYLKKSYGSSQWRTFYDEKATSELDHLRNNANGELAPSSLSEQNLKYYSFLEHLYFRLGSKGSRLKMDFTWYDAEYSSAQKGLKYTQHTLAFEKSCTLFNIAVIFTQIARENINEDYKNSIANLTKAFSCFEYLSENFLNSPSVDLQSENTRFLANICHAEAQELFVLKLLNDQISSKQYTLISKLSRATCNLFQKCHDFMKEIDDDVAIYGEPKWKTTVTCKLHFYKSLSAYYHGLHLEEENRVGEAIAFLDFSMQQLISSLPFKTWLVEFIDFDGFKETLEKKQKELIKDNDFIYHESVPAVVQVDSIKALDAIKSPTWEKILEPYMQDVANKYDSLYRGIIPLDVYEKESIYSEEKATLLR | soluble |
| MKEVKRPVVSVVVPVYNTEPFLAECLHSLEKQTLTDIEIILVNDGSTDNSGRLLREYAGKDARFVYVEQENQGLSAARNTGMEHASGHYLAFLDSDDWLAENALQVLCAIAAKTRTDIVSGNTLAVHADGQVQSWERRGRELFATGTVVSGSTYFSRVMDCRCYVPMVYNYLYRRDFIEQNGFRFEPGLVHEDELWTPQVLTTAQKITVADIDFYYYRQREGSIMTATAAGRRIASIQLIIEKLLEYSRKHLFEKKYREAKEALYVRLLQIYSTACTLHPDGTYTTLYDRAGEMLRVCEELRRQESLGRWYSEEILNRMKLYYDRLQTMEG | not soluble |
| MGHHHHHHSHMKTRQAFYLHTTKLTRIARRLCREILRPWHAARHPYLPINSAAIKAECTARLPEASQSPLVLKQAVRKPLEAVLRYLETHPRPPKPDPVKSVSSVLSSLTPAKVAPVINNGSPTILGKRSYEQHNGVDGNMKKRLLMPSRGLANHGQTRHMGPSRNLLLNGKSYPTKVRLIRGGSLPPVKRRRMNWIDAPDDVFYMATEETRKIRKLLSSSETKRAARRPYKPIALRQSQALPPRPPPPAPVNDEPIVIED | soluble |
| MVRFFIGKEMLFDSHLHLDQLSDENIQQTLAHSKIIGMLAVSTNLNSAKKLLNLKQTYPKKLYIAAGFHPEQQLPSLEEQKKLFQWIDEHHSSISAIGEVGLPHYSKRENPNLDYVPYIELLERFILIAKKWDLPLNLHIVHNDVEIALELLQKHNIQRAHFHWFKTDEKSFQKFFSTPYFASLTPDILWNSKTQYVAQHLSLNRLMIETDSPWQHEGFERAGISEQLLAVLQKLAELKSLPLHSVQKQILLNTQQFYRLLEHHHHHH | not soluble |
| MAKAGREGPRDSVWLSGEGRRGGRRGGQPSGLDRDRITGVTVRLLDTEGLTGFSMRRLAAELNVTAMSVYWYVDTKDQLLELALDAVFGELRHPDPDAGLDWREELRALARENRALLVRHPWSSRLVGTYLNIGPHSLAFSRAVQNVVRRSGLPAHRLTGAISAVFQFVYGYGTIEGRFLARVADTGLSPEEYFQDSMTAVTEVPDTAGVIEDAQDIMAARGGDTVAEMLDRDFEFALDLLVAGIDAMVEQA | soluble |
| MSDWTYSEGALDEAHWPQHYPACGGQRQSPINLQRTKVRYNPSLKGLNMTGYETQAGEFPMVNNGHTVQISLPSTMRMTVADGTVYIAQQMHFHWGGASSEISGSEHTVDGIRHVIEIHIVHYNSKYKSYDIAQDAPDGLAVLAAFVEVKNYPENTYYSNFISHLANIKYPGQRTTLTGLDVQDMLPRNLQHYYTYHGSLTTPPCTENVHWFVLADFVKLSRTQVWKLENSLLDHRNKTIHNDYRRTQPLNHRVVESNFPNQEYTLGSEFQAENLYFQ | soluble |
| MKVGIDAGGTLIKIVQEQDNQRTFKTELTKNIDQVVEWLNQQQIEKLCLTGGNAGVIAENINIPAQIFVEFDAASQGLGILLKEQGHDLADYIFANVGTGTSLHYFDGQSQRRVGGIGTGGGMIQGLGYLLSQITDYKQLTDMAQHGDRNTIDLKVRHIYKDTEPPIPGDLTAANFGHVLHHLDADFTPSNKLAAVIGVVGEVVTTMAITVAREFKTENIVYIGSSFHNNALLRKVVEDYTVLRGCKPYYVENGAFSGAIGALYLEKLEHHHHHH | soluble |
